Source: the DeepSol protein solubility set

Test: soluble on expression in E. coli; label from the status in PepcDB or PDB records

| Sequence | soluble on expression in E. coli |
| --- | --- |
| MAHHHHHHMIYKAYGSPENNSGNTHMYSMYAPPNAYVQGQGGSRTMYGYAGTGGHGSGHPFGYHANPSMGVTYEYNGGINVHHNGSAYRVGGGTNGRDRGGDVVSLRNLHGYDQQATSDYEVHDNQLKAPVVVTPATVVSTLGSARLFSKPPKPIVYGSRCVVRICDAFQEGRCAAGDRCHDIHVRPEYLAETRMEMSSWLFDRECEFRQTMEMDSEKTFSIFVADLKEVVEVPINSLVFTKGLYVDPATRAKRARGAGNHAHVHAMMQVPTSCGLYSTDPLQCKWERWCNQVHIDHRWMQVKKAEFDQWFIELQNRYFSLAPDDTFTVHDPQLKSSISLPKFSIAGFSRGLFQGSMKKLASVCLLFQRGKCTAGSCCNQIHVFPQYLSLAREFAAMEQSPDALPEEKQRLRREMELLRGPLMKQEKQETAAMESASLPNVVSSANEGTHSDAMDIKAAAEEDLASCGALFEHVQVDEDVEPVSHLVSANTSLTRRMNASAPDISLSVARHMNSDGSYSFNPYGSVTSLPDGSTSFNRFPGTRGSGQPMDGNGSVQYTPGSVQLLSTDTKGMRRLVALVSPESGNGAVELHRNGDDMGIGGNAGDGGTATVAHDRAPPFAAGHRSNGGYRAVAHPLGDEGGRYDSGTQGEQSCSLHPLDFDASWHFSPTPLLGFDASTTSTHRNGSIRDEDPAMHAHLRLTASNSSYIYPGSSTTSQQNLLSTPMHRGVTSNATTAARVRLAASAASSRTHAHRSATSLPDSSTTNPAMGGSVSSMPTARPTFVGEQLTGTR | not soluble |
| GPLGSKEQGVVRKAGWLFFKPLVTLQKERKLELVARRKWKQYWVTLKGCTLLFYETYGKNSTEQNSAPRCALFAEDSIVQSVPEHPKKEHVFCLSNSCGDVYLFQATSQTDLENWVTAIHSACASLFAKKHGKEDTVRLLKSQTRSLLQKIDMDSKMKKMAELQLSVVSDPKNRKAIENQIRQWEQNLEKFHMDLFRMRCYLASLQGGELPNPKSLLAATSRPSKLALGRLGVLSVSSFHALVCSRDDSTLRKRTLSLTQRGK | soluble |
| MSLQLRLALNQIDSTVGDIAGNAEAILRWTRHSAEQGAHLVAFPEMALTGYPVEDLALRSSFVEASRTALRELAARLAEEGFGELPVLVGYLDRSESAQPKYGQPAGAPRNAAAVLHRGRVALTFAKHHLPNYGVFDEFRYFVPGDTMPIVRLHGVDIALAICEDLWQDGGRVPAARSAGAGLLLSVNASPYERDKDDTRLELVRKRAQEAGCTTAYLAMIGGQDELVFDGDSIVVDRDGEVVARAPQFSEGCVVLDLDLPAAEAEPPTGVVDDGLRIDRLVISEEPLPAYEAELAGGYADRLDADEEVYSALVVGLRAYVAKNGFRSVLIGLSGGIDSALVAAIACDALGAQNVYGVSMPSKYSSDHSKGDAAELARRTGLNFRTVSIEPMFDAYMASLGLTGLAEENLQSRLRGTTLMAISNQEGHIVLAPGNKSELAVGYSTLYGDSVGAYGPIKDVYKTSIFRLAEWRNRAAAERGQTPPIPEASITKPPSAELRPGQVDTDSLPDYPVLDAILELYVDRDTGADAIVAAGYDRELVVKTLRMVDTAEYKRRQYPPGTKISAKGFGKDRRLPITNRWREGHHHHHH | soluble |
| MLTDLSIRNLAIIDSLHVSFDRGLTVLTGETGAGKSIIIDAVNLIMGGRASAELVRTGEEEATVEALFSLPTDAPLGQRLAAMGLDCDGELLVKRVVSRSGRNRVFIGGGLSTLAMLSDISRELVNIYGQHESQTLLRPENHLRLLDGFAGLDSLRADYAAIFDRYRETEARLRELDEGEREAARRLDLLSFQVEEIHAAALAPGEEEALAGERELLVNAERLSRGSEEAYEALYGDESSVLHLLARVKGRVAEISGVDASLAPLLDVVESAAAQLEDAALTLRGYGARIEADPARLEAVDERLDLIRRLKKKYAPTVEEIIAYGEEAAREMELLLNRDRTRSDLDRELETLAGRVRETGHGLSAKRHEAAKRLKAAMEREIHELAMKHALFDVAFEELPEPRQTGLDSVTFLFSPNPGEEPKPLARIASGGELSRLMLALKQVHPESDVPTLIFDEVDTGIGGATSALVGEKLKRVSRAQQVLCITHHPQVAAFADRHYKVEKRVEGGRTATAVTPLEGEDRVAEMARMLGGVTITGTTLDHAREMIEGARRAAVGG | not soluble |
| MGSDKIHHHHHHMELNEFLDKAYAVLRRLDAVLPPEPGHTDWNALAFRWQSAGKKGFLEHLPDPHTFPLARLAGVGRQTELLVRNTEQFIAGRPANNVLMSGARGTGKSSLVKALLHEYADKGLRLIEVDKSDLIGLPYLLTLLKERPEKFIVFCDDLSFESGDETYKALKTALDGGLSQRCANVLVYATSNRRHLMPEYFDENAGTTGMRGEIHQKEAVEEKISLSDRFGLWLSFYPFDQNDYLAAVQNWLEDFGVPYDETAQMAALQWAQTRGSRSGRSAWQFACDWAGRLPKQRAL | not soluble |
| MGSDKIHHHHHHMVKVSIICTNYNKGSWIGEAIDSFLKQETSFPYEIIIVDDASTDHSVHIIKTYQKQYPDLIRAFFNQENQGITKTWSDICKKARGQYIARCDGDDYWIDPFKLQKQIDLLETSPESKWSNTDFDMVDSKGNIIHKDVLKNNIIPFMDSYEKMLALKGMTMASTWLVETKLMLEINDRINKDAVDDTFNIQLELFKKTKLAFLRDSTTVYRMDAESDSRSKDSEKLAQRFDRLLETQLEYIEKYPDSDYKKVLEYLLPKHNDFEKVLAQDGKNVWDNQQITIYLAKGDDQEFSEENCFQFPLQHSGNIQLTFPENIRKIRIDLSEIPSYYRQVSLVNTTVNTELLPTWTNAKVFGYSYYFIAPDPQMIYDLTAQEGQDFKLTYEWFNVDRPSQPDFLANHLVKELDQKKVELKMLSPYKYQYQKAVAERDLYLEQLNEMVVRYNSVTHSRRWTIPTKIINLFRRKK | not soluble |
| MAFTESDVYNNEAFFKQYMKRRYRENSPNELIEKPAFFQLIGDVKGKKILDLGCGDAIFGKELLEKDCHSYTGIEGSELMYEKAKKQLENKNGIVHFLNLKDYTYPPATFDLVTSRLALHYIEHLPIIFQNVYETLKTNGTFTFSVQHPVITSSFESLQTSGKRTSWLVDDYFKTGKRVEPWIDQKVIKYHRTTEEYFTLLQQAGFTITNLKEATPNQTYFQSAEEYERRLRIPLFLLFSCRKLEHHHHHH | soluble |
| MGSDKIHHHHHHMNDYDNNSNINEDAWNKETYSAWVKRFGTPDTAAKKISKDPSKILSVLHEKLGDVKGKKIMNIMGSNGSKAVALALLGADVTVVDFSKGNMDYALDLAKEADVKIDYILSDILKLPEDKLTADYDIVFAEMGIIHYFIDLKPFIKTINRLLKEGGLFVLRDFHPVSTKLITSRGSTAKVRKHKVTGDYFDTSLEEKDAAFSKYLIDNKEPEKVLLRKWTLGEIVTSVAEGGFKIKKLDEEPNLSCDNFDKGIPKSFTLTSEKLS | not soluble |
| GPLGSMDQSVAIQETLVEGEYCVIAVQGVLCKGDSRQSRLLGLVRYRLENDAQEHALFLYTHRRMAITGDDVSLDQIVPLSKDFMLEEVSPDGELYILGSDVTVQLNTAELKLVFQLPFGSHTRTFLQEVARACPGFDPETRDPEFEWLSRHTCAEPDAES | soluble |
| MDARIVNALIGSVYETIRDVLGIEPKTGKPSTVSHIEIPHSLVTVIGITGGIEGSLIYSFSSETALKVVSAMMGGMEYNQLDELALSAIGELGNMTAGKLAMKLEHLGKHVDITPPTVVSGRDLKIKSFGVILKLPISVFSEEDFDLHLSVKSGG | soluble |
| MPNRKVVKFFFDVISPYSYFGFEGITRHRSVWKTPIQMKPFFFAGVVRHTENPGLPLRIPIKEKYMHKDLLFSAQYWGIPFRLPKDYTNMMLNTSSIVPQRILVASQLRDNVLMEDVARGLWHRFYAYGKPIFTKSQVAEVLRDLHVKDVDELVMMSDSAEVKNILRENTDEAIGNGCFGAPWMHITDGHGKVLQTVFGSDRLPQVADFLAEPFKGPMREKKPNA | not soluble |
| MSLSKPLQVNPHKLSPVMGAHLACLGVDGVMPIIHGAQGCSNFSKVFFTRHFSEPIVSHSTAVNDITAVLDGGACVAEAIDTLAKKSPFKLAAIITTGLTETKGDDVKGAIGQLSYPALYFPTPDYEGGLEEGFALAIEVFIKERMVSVTTPDPKLALILPHASMTPLEVEKLKEFLEDFGVRALALPDLSGSLDGHLEERQGSVSKGGITLEEIEEASRAGMILSIGESTRKARQAFLAKNPGAFDLNVESLYGLRSSDALIRALMDWTGHEPSVRIKRWRARLQDMMLDSHFALGGKRVIAALENDHLLGISKILEEVGMSFELAVATTGGPAMTKISAKEAVVGDLEHLMQNIESSEGVIACERLGGFLPKETPWLVRGYPIFERIGTGLGNDILYEGGCYLLKELANLFLKEHQAHEGHHHHHH | soluble |
| MIKYARQIYSTKQEVIMATYFSDNLTADQQNQVQQIIQQFQHPTLQKDLIVLNTLKKVEKGGDTLRIELQLPFAWNSGAEQLKQAVSDALLKATDCKLIKWAVAYQIATLKRANNQPAVKGVKNIIAVSSGKGGVGKSSVSVNLALALQAQGARVGILDADIYGPSIPHMLGAADQRPTSPDNQHITPIKAHGLSANSIGFLMNEDSATIWRGPMASSALSQLLNETLWDSLDYLVIDMPPGTGDIQLTLSQQIPVTGAVVVTTPQDIALLDAVKGISMFERVSVPVLGIVENMSMHICSECGHHEAIFGTGGAEKMAEKYNVKVLAQLPLHIRIREDLDAGNPTVVRVPENEISQAFLQLAEKVSTELYWQGSVIPSEILFKEVKLEHHHHHH | soluble |
| MKRAVVVFSGGQDSTTCLVQALQQYDEVHCVTFDYGQRHRAEIDVARELALKLGARAHKVLDVTLLNELAVSSLTRDSIPVPDYEPEADGIPNTFVPGRNILFLTLAAIYAYQVKAEAVITGVCETDFSGYPDCRDEFVKALNHAVSLGMAKDIRFETPLMWIDKAETWALADYYGKLDLVRNETLTCYNGIKGDGCGHCAACNLRANGLNHYLADKPTVMAAMKQKTGLR | not soluble |
| MSLGEKGQAEIIKSLTEQLDQVQSLDDDRIIRRYMEMINATLRTNYYQLDEHKQNKPWLSLKMKPSEIPEIPAPVPAFEIFVYAPDIEGVHLRGGKVARGGLRWSDRQEDFRTEILGLVKAQQVKNTVIVPVGAKGGFVCKKQYLYTTRDEIFAEGQRCYKRFIRALLDVTDNIIEGQVVPPKNVVRHDEDDPYLVVAADKGTATFSDLANSVSAEYQFWLGDAFASGGSNGYDHKAMGITAKGGWESVKRHFREMGIDCQTTDFTAIGIGDMAGDVFGNGMLLSKHIRLLAAFNHIHIFIDPTPDSASSWEERNRLFNLPRSSWEDYNPKLISKGGGVFSRKAKAITLTPEMQKMLNTKKTTLAPNELIKMILKMEVDLLWNGGIGTYVKSSIETHTDVGDRANDGLRVDGREVNAKIIGEGGNLGMTQRGRIEFALKGGRVNTDFVDNVGGVDCSDNEVNIKIFLNGLVANGDLTLKQRNQILESMKDEVGSIVIEDAYGQSESISVTEAQGEGHHHHHH | not soluble |
| VTVHSTPVRRSSGPAPQSLLSARRVSALPTPASRRCSGLPPMTPKTMPRAVGSPLCVPARRRSSEPRKNSAMRTEPTRESNRKTDSRLVDVSPDRGSPPSRVPQALNFSPEESDSTFSKSTATEVAREEAKPGGDAAPSEALLVDIKLEPLAVTPDAASQPLIDLPLIDFCDTPEAHVAVGSESRPLIDLMTNTPDMNKNVAKPSPVVGQLIDLSSPLIQLSPEADKENVDSPLLKF | not soluble |
| MAHHHHHHMPQVDLVKLLQICVNGALAAQQYILLDLIQLRSLEVSRRDVCIADLDQQEIARLRARLKAAVSVDVKGKLEYKEGGSVDDLVTTADVVTQGLMERLLAEAFPDTPFTIIGEEEATTTDAIKIQVERCVEAFRDVNAVAPLQKELEAHASSDSRHVSASTVEELRARVGVFIDPIDATSCFVDGTWGAPMTLVGITVDGVPVAGVSNRFFYSTVDDLTSGGNAGCTGLSYVWNDPSAGPFIVHEGRLATPLWSLGRKTTSNLAMLRVIRSGTTSNKRFEQLLARLQPVEPRSARGAGNKLMLLVVSMLAASDGAAAAACDVFLAPPNSISKWDTCAAHAFLLALGGDMRTLRGELIRYPLRGTTNLKTLPDGVVGLTRWSMTEGLRRLGWQ | not soluble |
